One block for each binder: values may come before it.
Assays:
TSC2 [1] = target: T1, TSC2 (human, UniProt P49815 1-1807, limits assumed); assay: in vitro pull-down from extract with 6× His baits (FIG. 13)
T1 construct: Untagged TSC2 in 293T cell extracts, endogenous or from a transfected TSC2 cDNA; Some extracts of the pull-downs may hold HA-TSC2; also called tuberin; endogenous TSC2

HA-tagged TSC2 (HA-TSC2) = target: T2, HA-tagged TSC2 (HA-TSC2) (human, UniProt P49815 1-1807); assay: co-IP with anti-FLAG from transfected 293T post-nuclear supernatant (FIG. 25)
T2 construct: Expressed in transfected 293T cells; also called full length HA-tagged TSC2; not shown: HA tag
T2 sequence (P49815 other isoform, or with tags, fused parts or gaps limits assumed): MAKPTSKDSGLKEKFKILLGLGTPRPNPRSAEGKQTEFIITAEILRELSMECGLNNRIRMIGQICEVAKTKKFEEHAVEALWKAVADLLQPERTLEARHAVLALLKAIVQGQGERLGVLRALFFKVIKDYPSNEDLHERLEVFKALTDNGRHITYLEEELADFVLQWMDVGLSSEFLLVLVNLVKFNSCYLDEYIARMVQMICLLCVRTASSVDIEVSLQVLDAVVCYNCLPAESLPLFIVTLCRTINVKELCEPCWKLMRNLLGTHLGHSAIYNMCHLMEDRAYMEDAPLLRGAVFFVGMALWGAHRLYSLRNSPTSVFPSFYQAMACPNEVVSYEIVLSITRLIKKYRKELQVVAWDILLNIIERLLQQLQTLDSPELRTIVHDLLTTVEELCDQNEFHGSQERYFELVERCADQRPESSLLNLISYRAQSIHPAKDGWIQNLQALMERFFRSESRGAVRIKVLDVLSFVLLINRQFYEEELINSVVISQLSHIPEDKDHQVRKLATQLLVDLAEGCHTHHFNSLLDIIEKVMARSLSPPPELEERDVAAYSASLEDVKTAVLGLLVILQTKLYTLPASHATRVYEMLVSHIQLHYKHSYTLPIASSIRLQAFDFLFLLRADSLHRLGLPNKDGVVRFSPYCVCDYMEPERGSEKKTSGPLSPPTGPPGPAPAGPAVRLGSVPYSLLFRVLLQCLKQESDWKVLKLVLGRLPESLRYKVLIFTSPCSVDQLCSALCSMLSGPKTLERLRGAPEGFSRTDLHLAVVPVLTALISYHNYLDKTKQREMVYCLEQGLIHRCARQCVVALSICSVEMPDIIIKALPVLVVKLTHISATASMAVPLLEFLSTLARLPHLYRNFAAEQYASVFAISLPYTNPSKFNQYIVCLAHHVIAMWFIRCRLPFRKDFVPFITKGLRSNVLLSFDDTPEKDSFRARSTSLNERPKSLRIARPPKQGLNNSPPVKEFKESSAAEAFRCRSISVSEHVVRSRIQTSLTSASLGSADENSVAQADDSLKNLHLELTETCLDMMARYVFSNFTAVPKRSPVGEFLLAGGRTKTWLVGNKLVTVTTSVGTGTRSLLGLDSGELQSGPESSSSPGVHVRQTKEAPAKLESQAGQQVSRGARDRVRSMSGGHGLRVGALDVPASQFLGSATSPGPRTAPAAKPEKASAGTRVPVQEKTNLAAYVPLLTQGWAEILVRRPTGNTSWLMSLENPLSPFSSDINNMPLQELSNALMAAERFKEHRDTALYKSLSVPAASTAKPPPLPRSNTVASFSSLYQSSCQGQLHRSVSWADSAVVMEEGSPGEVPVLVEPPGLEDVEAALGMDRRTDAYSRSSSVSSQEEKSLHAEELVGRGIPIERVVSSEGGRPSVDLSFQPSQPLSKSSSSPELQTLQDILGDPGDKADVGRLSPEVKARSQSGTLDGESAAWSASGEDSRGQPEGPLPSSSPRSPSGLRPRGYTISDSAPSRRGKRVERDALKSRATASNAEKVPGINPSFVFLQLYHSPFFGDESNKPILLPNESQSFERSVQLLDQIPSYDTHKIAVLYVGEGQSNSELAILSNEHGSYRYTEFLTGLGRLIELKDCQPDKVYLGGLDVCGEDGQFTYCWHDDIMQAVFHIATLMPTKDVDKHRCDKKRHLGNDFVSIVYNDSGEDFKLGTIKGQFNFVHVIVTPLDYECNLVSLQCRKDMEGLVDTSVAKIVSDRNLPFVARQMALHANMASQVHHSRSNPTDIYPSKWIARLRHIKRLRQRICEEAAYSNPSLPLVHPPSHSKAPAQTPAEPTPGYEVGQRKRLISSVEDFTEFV
Procedure: TSC2 region that binds hRTP801 (FIG. 25). Human TSC2 HA-tagged “N” and “C” fragments (FIG. 25, upper panel) as well as full length HA-tagged TSC2 were transfected into 293T cells along with FLAG-hRTP801 or with empty vector. Forty-eight hours after transfection, the cells were treated with CoCl₂ for overnight. Cells were harvested and post-nuclear supernatant was prepared and used for IP with anti-FLAG antibodies. […] Similar results are achieved with RTP801L

TSC2 [2] = target: T1, TSC2; assay: co-IP with anti-FLAG from 293T extracts (FIG. 34)
Procedure: Description: 293T cells were transiently transfected with either empty plasmid or with plasmid containing FLAG-hRTP801 or FLAG-hRTP801-L (REDD2) cDNAs. 48 hrs. post-transfection, cobalt chloride (150 uM) was added (or omitted) for another 24 hrs. Cytosolic extracts prepared and IP was done using anti-FLAG antibodies. Alternatively, 293T cells were transiently transfected with plasmid containing FLAG-hRTP801 cDNA and plasmid containing TSC1 or TSC2 cDNAs or both. 48 hrs. post transfection, cobalt chloride (150 uM) was added for another 24 hrs. Cytosolic extracts prepared and IP was done using anti-TSC1, anti-TSC2 or normal rabbit IgG (NRIgG) antibodies. Alternatively, 293T cells were transiently transfected with either empty plasmid,plasmid containing FLAG-hRTP801 cDNA and plasmids containing either TSC1 and/or TSC2 cDNAs. 48 hrs. post transfection, cobalt chloride (150 uM) was added for another 24 hrs. Cytosolic extracts prepared and IP was done using anti-FLAG antibodies.

[3] = target: T3, HA-tagged TSC2 “N” fragment (a.a. 2-935) (human, UniProt P49815 2-935); assay: co-IP with anti-FLAG, anti-HA blot (FIG. 17)
T3 construct: Printed as a.a; also called HA-“N” fragment of TSC2; not shown: HA tag
T3 sequence (P49815 other isoform, or with tags, fused parts or gaps): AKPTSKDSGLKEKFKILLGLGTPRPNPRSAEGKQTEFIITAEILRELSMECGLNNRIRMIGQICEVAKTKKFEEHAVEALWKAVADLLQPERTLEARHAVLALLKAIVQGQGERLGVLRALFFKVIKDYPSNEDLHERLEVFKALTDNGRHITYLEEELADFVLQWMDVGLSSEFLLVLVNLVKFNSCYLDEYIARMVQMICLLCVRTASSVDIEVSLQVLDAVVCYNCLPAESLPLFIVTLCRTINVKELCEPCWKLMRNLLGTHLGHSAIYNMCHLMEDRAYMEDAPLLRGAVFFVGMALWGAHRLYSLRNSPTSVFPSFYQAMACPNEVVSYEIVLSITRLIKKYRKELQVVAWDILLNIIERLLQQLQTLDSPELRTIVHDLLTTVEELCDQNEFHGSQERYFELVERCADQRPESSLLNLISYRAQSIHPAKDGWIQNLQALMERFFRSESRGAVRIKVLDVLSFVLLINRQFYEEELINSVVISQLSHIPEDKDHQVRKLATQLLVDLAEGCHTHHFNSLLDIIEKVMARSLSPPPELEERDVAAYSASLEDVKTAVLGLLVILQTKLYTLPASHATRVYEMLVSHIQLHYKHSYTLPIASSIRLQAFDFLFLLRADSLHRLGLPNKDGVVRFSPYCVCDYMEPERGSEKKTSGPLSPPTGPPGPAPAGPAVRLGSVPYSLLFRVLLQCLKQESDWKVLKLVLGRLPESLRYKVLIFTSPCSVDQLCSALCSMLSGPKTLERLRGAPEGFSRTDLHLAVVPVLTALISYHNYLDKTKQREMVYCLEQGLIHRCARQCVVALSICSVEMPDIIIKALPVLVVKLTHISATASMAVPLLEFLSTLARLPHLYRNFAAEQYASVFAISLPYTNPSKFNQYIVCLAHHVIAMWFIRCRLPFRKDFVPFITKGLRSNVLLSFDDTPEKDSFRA
Procedure: Cytosolic extracts were prepared and IP was done using anti-FLAG antibodies. Analysis of the immnocomplexes was done with anti-HA.

[4] = target: T4, HA-SV5-full length hRTP801 (human, UniProt Q9NX09 1-232); assay: co-IP with M2 anti-FLAG resin from 293T HEK extracts, immunoblot (FIG. 21)
T4 construct: Full length, expressed in transfected 293T HEK cells; also called HA-SV5-hRTP801; HA-full length hRTP801; not shown: HA and SV5 tags
T4 sequence: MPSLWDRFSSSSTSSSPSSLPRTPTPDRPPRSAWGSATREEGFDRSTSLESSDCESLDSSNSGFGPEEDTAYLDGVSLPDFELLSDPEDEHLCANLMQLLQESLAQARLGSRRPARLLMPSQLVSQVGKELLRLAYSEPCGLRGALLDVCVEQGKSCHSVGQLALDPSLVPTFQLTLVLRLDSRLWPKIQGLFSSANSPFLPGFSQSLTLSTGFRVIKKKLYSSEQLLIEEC
Procedure: 293T HEK cells were co-transfected with a plasmid containing cDNA of HA-SV5-full length hRTP801 (“Prey”) as well as plasmid containing cDNA of one of the following: FLAG-full length hRTP801, FLAG-(C) hRTP801, FLAG-(N-C1) hRTP801, FLAG-(N-C1) hRTP801, FLAG-(N-C2)hRTP801 and FLAG-(C3) hRTP801. Forty-eight hours after transfection, cells were treated with 150 uM cobalt chloride for 18 hrs to mimick hypoxic stress conditions. The next day, cytosolic extracts were made by mechanic lysis under hypotonic conditions. FLAG-tagged bait proteins were immunoprecipitated with M2 anti-FLAG resin (Sigma). Following extensive washing, immunoprecipitated material was analyzed by immunblotting with either anti-hRTP801 polyclonal antibodies (proprietary) or with anti-SV5 polyclonal antibodies (AbCam).

T1 sequence (P49815 other isoform, or with tags, fused parts or gaps limits assumed): as the sequence (P49815 other isoform, or with tags, fused parts or gaps limits assumed) above

B2: FLAG-hRTP801 (other)
chain: T4 sequence
notes: Full length hRTP801 with FLAG tag, expressed in transfected 293T cells; also called FLAG-full length hRTP801; FLAG-tagged hRTP801; not shown: FLAG tag
binding result (HA-tagged TSC2 (HA-TSC2)): binds
binding result (TSC2 [2]): binds
binding result [3]: binds

B3: FLAG-hRTP801-L (REDD2) (other)
chain: MVATGSLSSKNPASISELLDCGYHPESLLSDFDYWDYVVPEPNLNEVIFEESTCQNLVKMLENCLSKSKQTKLGCSKVLVPEKLTQRIAQDVLRLSSTEPCGLRGCVMHVNLEIENVCKKLDRIVCDSSVVPTFELTLVFKQENCSWTSFRDFFFSRGRFSSGFRRTLILSSGFRLVKKKLYSLIGTTVIEGS
notes: Expressed in transfected 293T cells; also called FLAG-RTP801L; not shown: FLAG tag
binding result (TSC2 [2]): binds

Other lines, results leading:

binding result (TSC2 [1]): no binding
B1: 6× His hRTP801 N-fragment (other)
chain: MPSLWDRFSSSSTSSSPSSLPRTPTPDRPPRSAWGSATREEGFDRSTSLESSDCESLDSSNSGFGPEEDTAYLDGVSLPDFELLSDPE
notes: not shown: 6× His tag

binding result [4]: binds
B4: FLAG-(N-C2)hRTP801 (other)
chain: MPSLWDRFSSSSTSSSPSSLPRTPTPDRPPRSAWGSATREEGFDRSTSLESSDCESLDSSNSGFGPEEDTAYLDGVSLPDFELLSDPEDEHLCANLMQLLQESLAQARLGSRRPARLLMPSQLVSQVGKELLRLAYSEPCGLRGALLDVCVEQGKSCHSVGQLALDPSLVPTFQLTLVLRLDSRLWPKIQGLFSS
notes: also called hRTP801 N-C2 fragment; hRTP801 N-C2 mutant; not shown: FLAG tag

From patent US20080014599A1 (published 2008)
